From patent US20220193237A1 (Bristol-Myers Squibb, published 2022)
Residue numbers refer to the chain shown, from its start. Names may count otherwise. Each block holds one binder with its values, some of them ahead of it.

Assays:
monomeric human CTLA-4 [1] = biological target: T1, monomeric human CTLA-4 (human, UniProt P16410 36-161, limits assumed); experiment: SPR, captured Fab, pH 6.0
T1 construct: Soluble monomeric analyte in SPR; also called huCTLA-4
T1 sequence: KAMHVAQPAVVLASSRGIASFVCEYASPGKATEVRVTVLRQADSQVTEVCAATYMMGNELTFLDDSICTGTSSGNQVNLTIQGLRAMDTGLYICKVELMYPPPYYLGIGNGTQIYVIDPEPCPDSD
Protocol: (§1) Binding of selected variants to human CTLA-4 was determined essentially as described in Example 3. […] Nomenclature and sequences for these antibodies is provided at Tables 6 and 7, and in the sequence listing as summarized at Table 8.
(§2) Monomeric human CTLA-4 was flowed as analyte with up to 2 μM top concentration. Between cycles, the capture surface was regenerated with 75 mM phosphoric acid. Experiments were run on a BIACORE® T200 instrument at 37° C. Running buffers were HEPES buffered saline for pH 7.4 experiments and Bis-Tris buffered saline for lower pH experiments. […] Double referenced sensorgrams were fitted to a 1:1 Langmuir binding model with mass transport to determine equilibrium dissociation constants (KD), as well as association (kₐ) and dissociation (kd) rate constants where appropriate.

monomeric human CTLA-4 [2] = biological target: T1, monomeric human CTLA-4; experiment: SPR, captured Fab, pH 7.4
Protocol: as §1, §2

monomeric human CTLA-4 [3] = biological target: T1, monomeric human CTLA-4; experiment: SPR, pH 6.0 and pH 7.5 (FIG. 6)
Protocol: Unless otherwise indicated, experiments were performed with a BIACORE® SPR surface plasmon resonance spectrometer (Biacore AB, Uppsala, Sweden). Antibodies were tested as monovalent Fab fragments to simplify analysis.
as §2

monomeric human CTLA-4 [4] = biological target: T1, monomeric human CTLA-4; experiment: SPR, captured Fab, pH 6.0 vs 7.4
Protocol: as §1, §2

monomeric human CTLA-4 [5] = biological target: T1, monomeric human CTLA-4; experiment: SPR, captured Fab, second experiment of Table 3
Protocol: (§3) See Example 3. Antibodies were tested as monovalent Fab fragments to simplify analysis.
as §2

monomeric human CTLA-4 [6] = biological target: T1, monomeric human CTLA-4; experiment: SPR, captured Fab, pH 6.0, second experiment
Protocol: as §3, §2

monomeric human CTLA-4 [7] = biological target: T1, monomeric human CTLA-4; experiment: SPR, captured Fab, pH 7.4, second experiment
Protocol: as §3, §2

monomeric human CTLA-4 [8] = biological target: T1, monomeric human CTLA-4; experiment: SPR, captured Fab, pH 6.0 vs 7.4, second experiment
Protocol: as §3, §2

monomeric human CTLA-4 [9] = biological target: T1, monomeric human CTLA-4; experiment: SPR, captured Fab, pH 6.0; remark: listed apart in the source
Protocol: as §3, §2

monomeric human CTLA-4 [10] = biological target: T1, monomeric human CTLA-4; experiment: SPR, captured Fab, pH 7.4; remark: listed apart in the source
Protocol: as §3, §2

monomeric human CTLA-4 [11] = biological target: T1, monomeric human CTLA-4; experiment: SPR, captured Fab, pH 6.0 vs 7.4; remark: listed apart in the source
Protocol: as §3, §2

monomeric human CTLA-4 [12] = biological target: T1, monomeric human CTLA-4; experiment: SPR, captured Fab, first experiment of Table 3
Protocol: as §3, §2

[13] = biological target: T2, human CTLA-4 on 58 α-β-CTLA-4/CD3 ζ cells (human; mouse (mCD3ζ)); experiment: flow cytometry (APC mean FI), Fab on 58αβ-CTLA4/mCD3ζ cells, pH 6.2
T2 construct: also called 58αβ-hCTLA4/mCD3ζ cells; 58αβ-CTLA4/mCD3ζ cells
Protocol: Antibodies were titrated from 100 μg/mL at a 1:4 dilution across 12 points in pH-specific buffers and incubated for 30-60 minutes. Buffers contained HBSS, 2% FBS^HI, 0.02% sodium azide, 2 mM EDTA, and sodium phosphate buffer (pH 5.4). Sodium phosphate buffer was added until desired pH was reached (7.2, 6.7, 6.2). Approximately 3e5 cells/well were tested for each cell line. […] Detection was done with a monovalent anti-hKappa secondary nanobody conjugated to Alexa647 and used at a dilution of 1:2000. Cells were fixed with BD Fix Solution I for 30 minutes prior to resuspension in pH-specific buffers and reading on the cytometer (BD Fortessa).
The experimental protocol was the same as used to obtain the data of FIGS. 16A-C.

monomeric cyno CTLA-4 = biological target: T3, monomeric cyno CTLA-4 (cynomolgus macaque (Macaca fascicularis), UniProt G7PL88 36-161); experiment: SPR, Fab, monomeric cyno CTLA-4 as analyte; koff (s^-1, linear axis 0 to 0.3) plotted against pH
T3 construct: also called CTLA-4 from the cynomolgus macaque Macaca fascicularis
T3 sequence: T1 sequence with S14N, I18T, L106M
Protocol: The pH dependence of binding of selected antibodies of the present invention to human CTLA-4 and cyno CTLA-4 was measured by surface plasmon resonance (SPR) spectroscopy, essentially as described in Example 3. Briefly, antibodies were studied as monovalent Fab fragments. Anti-human kappa polyclonal capture antibody (Southern Biotech, Ala. USA) was immobilized on a ethylenediamine-blocked CM4 sensor chip in a Biacore T200 surface plasmon resonance system. Fab fragments of selected antibodies of the present invention were then captured on one flow cell each. […] Running buffer was 20 mM BisTris, 150 mM NaCl, 0.05% Tween-20, 1 g/L BSA, at a pH ranging from 5.5 to 7.4 in 0.1-0.2 pH unit intervals (12 total). The surface was regenerated with 1/200 H₃PO₄ between cycles. […] Where required, the Rₘₐₓ was fixed by calculating expected binding based on capture level and apparent activity from other fits for the same Fab.

Kd (monomeric human CTLA-4 [1]): 7.9 nM | kon (monomeric human CTLA-4 [1]): 1.1e+06 M⁻¹ s⁻¹ | t1/2 (monomeric human CTLA-4 [1]): 83 s | Kd (monomeric human CTLA-4 [2]): 28 nM | kon (monomeric human CTLA-4 [2]): 800000 M⁻¹ s⁻¹ | t1/2 (monomeric human CTLA-4 [2]): 32 s | CAPBP (ratio of KD normalized to ipilimumab) (monomeric human CTLA-4 [3]): 5.5 | KD 7.4/6 (APBP) (monomeric human CTLA-4 [4]): 3.5 | ka 6/7.4 (monomeric human CTLA-4 [4]): 1.3 | t1/2 6/7.4 (monomeric human CTLA-4 [4]): 2.7
B1: ipi.57 Fab (Fab, V domains shown)
VH: QVQLVESGGGVVQPGRSLRLSCAASGFTFSHYTMHWVRQAPGKGLEWVTFISYDGNNKYYADSVKGRFTISRDNSKNTLYLQMNSLRAEDTAIYYCARTGWLGPFDYWGQGTLVTVSS
VL: not shown
notes: Tested as monovalent Fab; also called HCDR1 S31H

Kd (monomeric human CTLA-4 [9]): 8.8 nM | koff (monomeric human CTLA-4 [9]): 0.0093 s⁻¹ | kon (monomeric human CTLA-4 [9]): 1.1e+06 M⁻¹ s⁻¹ | Kd (monomeric human CTLA-4 [10]): 28 nM | koff (monomeric human CTLA-4 [10]): 0.018 s⁻¹ | kon (monomeric human CTLA-4 [10]): 640000 M⁻¹ s⁻¹ | Kd (monomeric human CTLA-4 [1]): 8.8 nM | kon (monomeric human CTLA-4 [1]): 1.1e+06 M⁻¹ s⁻¹ | t1/2 (monomeric human CTLA-4 [1]): 75 s | Kd (monomeric human CTLA-4 [2]): 28 nM | kon (monomeric human CTLA-4 [2]): 640000 M⁻¹ s⁻¹ | t1/2 (monomeric human CTLA-4 [2]): 39 s | KD 7.4/6 (APBP) (monomeric human CTLA-4 [11]): 3.2 | ka 6/7.4 (monomeric human CTLA-4 [11]): 1.7 | kd 7.4/6 (monomeric human CTLA-4 [11]): 1.9 | KD 7.4/6 (APBP) (monomeric human CTLA-4 [4]): 3.1 | ka 6/7.4 (monomeric human CTLA-4 [4]): 1.7 | t1/2 6/7.4 (monomeric human CTLA-4 [4]): 1.9 | ratio of KD (7.4/6.0) normalized to the ratio of ipilimumab (monomeric human CTLA-4 [12]): 3.2
B3: ipi.18 Fab (Fab, V domains shown)
VH: B1 VH with H31S
VL: not shown
notes: Tested as monovalent Fab; also called S31D

Further lines, the binder ahead of its results:

B2: ipi.26 Fab (Fab, V domains shown)
VH: B1 VH with H31S
VL: not shown
notes: Tested as monovalent Fab
ratio of KD (7.4/6.0) normalized to the ratio of ipilimumab (monomeric human CTLA-4 [5]): 4.3 | Kd (monomeric human CTLA-4 [6]): 8.9 nM | koff (monomeric human CTLA-4 [6]): 0.007 s⁻¹ | kon (monomeric human CTLA-4 [6]): 790000 M⁻¹ s⁻¹ | Kd (monomeric human CTLA-4 [7]): 30 nM | koff (monomeric human CTLA-4 [7]): 0.012 s⁻¹ | kon (monomeric human CTLA-4 [7]): 410000 M⁻¹ s⁻¹ | KD 7.4/6 (APBP) (monomeric human CTLA-4 [8]): 3.4 | ka 6/7.4 (monomeric human CTLA-4 [8]): 2 | kd 7.4/6 (monomeric human CTLA-4 [8]): 1.7

B4: ipi.101 Fab (Fab, V domains shown)
VH: B1 VH with N56H
VL: not shown
notes: Tested as monovalent Fab
Kd (monomeric human CTLA-4 [1]): 1.5 nM | kon (monomeric human CTLA-4 [1]): 1.2e+06 M⁻¹ s⁻¹ | t1/2 (monomeric human CTLA-4 [1]): 385 s | Kd (monomeric human CTLA-4 [2]): 45 nM | kon (monomeric human CTLA-4 [2]): 490000 M⁻¹ s⁻¹ | t1/2 (monomeric human CTLA-4 [2]): 32 s | KD 7.4/6 (APBP) (monomeric human CTLA-4 [4]): 31 | ka 6/7.4 (monomeric human CTLA-4 [4]): 2.5 | t1/2 6/7.4 (monomeric human CTLA-4 [4]): 12 | EC50 (read off the curve) [13]: ~0.07 µg/mL | binding result (monomeric cyno CTLA-4): binds

B5: ipi.23 Fab (Fab, V domains shown)
VH: B1 VH with H31S
VL: not shown
notes: Tested as monovalent Fab
ratio of KD (7.4/6.0) normalized to the ratio of ipilimumab (monomeric human CTLA-4 [5]): 5.1 | Kd (monomeric human CTLA-4 [6]): 6.5 nM | koff (monomeric human CTLA-4 [6]): 0.0062 s⁻¹ | kon (monomeric human CTLA-4 [6]): 960000 M⁻¹ s⁻¹ | Kd (monomeric human CTLA-4 [7]): 27 nM | koff (monomeric human CTLA-4 [7]): 0.013 s⁻¹ | kon (monomeric human CTLA-4 [7]): 490000 M⁻¹ s⁻¹ | KD 7.4/6 (APBP) (monomeric human CTLA-4 [8]): 4.1 | ka 6/7.4 (monomeric human CTLA-4 [8]): 2 | kd 7.4/6 (monomeric human CTLA-4 [8]): 2.1
